Results reported in patent US20060030530A1.
pKd: −log10 of the molar value.

Tests used:
[1] = biological target: human LSR α′ subunit expressed in CHO-K1 cells (human) (UniProt Q86X29); test: cell-associated ^125I-leptin on CHO-K1 cells stably expressing LSR α′, 37° C., 2 h; Lineweaver-Burk transformation (FIG. 3C, inset)
[2] = biological target: endogenous human LSR of PLC hepatoma cells (human) (UniProt Q86X29); test: cell-based or functional assay
[3] = biological target: human LSR α′ subunit expressed in CHO-K1 cells (human) (UniProt Q86X29); test: cell-based or functional assay

Chain of endogenous human LSR of PLC hepatoma cells (human) (Q86X29 whole entry): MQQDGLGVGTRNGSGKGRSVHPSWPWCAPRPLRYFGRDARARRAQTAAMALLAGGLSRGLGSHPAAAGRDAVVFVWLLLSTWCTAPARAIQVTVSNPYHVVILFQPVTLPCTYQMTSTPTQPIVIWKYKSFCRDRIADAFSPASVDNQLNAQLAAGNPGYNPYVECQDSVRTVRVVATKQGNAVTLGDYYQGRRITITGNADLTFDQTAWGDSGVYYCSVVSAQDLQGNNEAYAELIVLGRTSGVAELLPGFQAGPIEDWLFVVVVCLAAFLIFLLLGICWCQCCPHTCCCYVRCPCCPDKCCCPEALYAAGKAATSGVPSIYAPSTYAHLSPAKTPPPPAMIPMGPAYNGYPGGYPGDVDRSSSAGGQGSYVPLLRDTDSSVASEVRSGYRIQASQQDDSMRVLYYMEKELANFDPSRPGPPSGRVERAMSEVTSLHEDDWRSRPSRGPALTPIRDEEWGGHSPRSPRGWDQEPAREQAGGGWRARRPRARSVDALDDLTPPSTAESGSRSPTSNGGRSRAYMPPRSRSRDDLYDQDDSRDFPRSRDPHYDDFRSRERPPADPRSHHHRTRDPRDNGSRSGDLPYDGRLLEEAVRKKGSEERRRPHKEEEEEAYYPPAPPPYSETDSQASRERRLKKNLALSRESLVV
Chain of human LSR α′ subunit expressed in CHO-K1 cells (human) (Q86X29 whole entry): as above

Substance	pKd [1]	^125I-leptin degradation by PLC cells (TCA-soluble chloroform-insoluble products) [2] [ng/mL]	^125I-leptin degraded relative to that bound and internalized [3] [%]	acute leptin stimulation of oleate-induced ^125I-LDL binding in PLC cells preincubated 24 h with 200 ng/mL leptin: leptin concentration giving the maximal effect [2] [ng/mL]	acute leptin stimulation of oleate-induced ^125I-LDL binding in PLC cells preincubated 24 h with 200 ng/mL leptin: reduction of the maximal effect [2] [%]	oleate-induced LSR binding uptake and degradation of ^125I-LDL in PLC cells [2] [ng/mL]
^125I-leptin (species not stated) (ligand)	8.89	> 10	16	–	–	–
recombinant human leptin (from UniProt P41159 22-167) (ligand)	–	–	–	100	50	> 10
